Assay results reported in patent WO2017046774A2 (dated 2017).

Experiments:
[1] = target: T1, recombinant laminin 511 (UniProt O15230 36-3695; P07942 22-1786; P11047 34-1609); experiment: flow cytometry on CHO cells transfected with human MCAM, pan-laminin antibody
T1 construct: also called laminin 10 (α5β1γ1)

[2] = target: T2, human MCAM C272A mutant (shotgun mutagenesis library clone, on cells) (human, UniProt P43121 24-646); experiment: shotgun mutagenesis library, immunodetection on BHK cells, normalized to wild type MCAM
T2 construct: Expressed in BHK cells, immunodetection
T2 chain: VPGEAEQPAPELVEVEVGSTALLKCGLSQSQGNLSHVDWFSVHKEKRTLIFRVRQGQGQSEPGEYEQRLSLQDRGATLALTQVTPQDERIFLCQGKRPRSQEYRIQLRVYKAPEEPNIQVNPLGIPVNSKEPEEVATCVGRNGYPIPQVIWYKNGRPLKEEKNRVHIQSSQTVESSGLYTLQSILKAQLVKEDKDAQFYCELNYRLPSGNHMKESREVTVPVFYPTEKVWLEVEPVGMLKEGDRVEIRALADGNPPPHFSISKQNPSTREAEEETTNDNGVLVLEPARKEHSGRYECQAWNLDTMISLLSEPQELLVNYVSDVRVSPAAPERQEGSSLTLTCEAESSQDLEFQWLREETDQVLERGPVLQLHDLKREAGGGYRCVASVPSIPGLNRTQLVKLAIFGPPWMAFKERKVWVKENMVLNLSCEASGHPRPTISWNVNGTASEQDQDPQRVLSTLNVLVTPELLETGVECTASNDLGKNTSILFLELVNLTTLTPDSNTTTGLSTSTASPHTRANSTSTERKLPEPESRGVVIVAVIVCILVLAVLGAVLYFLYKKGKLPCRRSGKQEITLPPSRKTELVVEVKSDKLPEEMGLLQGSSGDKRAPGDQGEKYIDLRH

Binder	binding result [1]	mean monoclonal antibody reactivity (% WT) [2] [% WT]
human MCAM (full length, expressed on the surface of transfected cells) (receptor, also called CD146; MUC18) VPGEAEQPAPELVEVEVGSTALLKCGLSQSQGNLSHVDWFSVHKEKRTLIFRVRQGQGQSEPGEYEQRLSLQDRGATLALTQVTPQDERIFLCQGKRPRSQEYRIQLRVYKAPEEPNIQVNPLGIPVNSKEPEEVATCVGRNGYPIPQVIWYKNGRPLKEEKNRVHIQSSQTVESSGLYTLQSILKAQLVKEDKDAQFYCELNYRLPSGNHMKESREVTVPVFYPTEKVWLEVEPVGMLKEGDRVEIRCLADGNPPPHFSISKQNPSTREAEEETTNDNGVLVLEPARKEHSGRYECQAWNLDTMISLLSEPQELLVNYVSDVRVSPAAPERQEGSSLTLTCEAESSQDLEFQWLREETDQVLERGPVLQLHDLKREAGGGYRCVASVPSIPGLNRTQLVKLAIFGPPWMAFKERKVWVKENMVLNLSCEASGHPRPTISWNVNGTASEQDQDPQRVLSTLNVLVTPELLETGVECTASNDLGKNTSILFLELVNLTTLTPDSNTTTGLSTSTASPHTRANSTSTERKLPEPESRGVVIVAVIVCILVLAVLGAVLYFLYKKGKLPCRRSGKQEITLPPSRKTELVVEVKSDKLPEEMGLLQGSSGDKRAPGDQGEKYIDLRH	no binding (tested: 10 μg/ml)	
mouse anti-human MCAM monoclonal antibody clone 1749.1.3 (antibody, V domains shown, Mouse hybridoma monoclonal antibody; also called m1749) VH: DVKLVESGGDLVKPGGSLKLSCAASGFTFSSYIMSWVRQTPEKRLEWVATISSGGSSTYYPDSVKGRFTISRDNAKNTLYLQMSSLKSEDTAMYYCTRDDDYDVKVFAYWGQGTLVTVSA VL: DIVMSQSPSSLAVSAGEKVTMNCKSSRSLLNSRIRKNYLAWYQQKPGQSPKLLIYWASTRESGVPDRFTGSGSGTDFTLTISSVQAEDLAVYYCKQSYNLLTFGAGTKLELK		< 30
